Molecular target: human IgE myeloma protein (American Biosystems, Inc. cat. no. A113) (human)
Experiment: ELISA negative control run with each assay (human IgE ELISA and peptide ELISAs)

Chain of human IgE myeloma protein (American Biosystems, Inc. cat. no. A113) (human) (heavy, as listed by the source): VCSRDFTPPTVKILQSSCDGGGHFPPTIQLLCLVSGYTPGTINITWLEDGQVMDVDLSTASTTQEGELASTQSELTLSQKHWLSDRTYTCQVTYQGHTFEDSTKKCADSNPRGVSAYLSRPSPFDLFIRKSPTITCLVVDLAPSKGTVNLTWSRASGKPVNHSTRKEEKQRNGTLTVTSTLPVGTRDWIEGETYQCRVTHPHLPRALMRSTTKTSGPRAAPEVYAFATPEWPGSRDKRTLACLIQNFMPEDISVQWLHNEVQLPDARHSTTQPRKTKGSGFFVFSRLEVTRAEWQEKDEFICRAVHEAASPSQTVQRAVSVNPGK

diluted normal guinea pig control samples (antibody)
A492: < 0.15 A492

Source: patent US20050250934A1
